From patent EP4527855A2

How the values were obtained:
[1] = target: 28mer peptide of the CXCR5 antigen; test: Antigen-ELISA on the 28mer CXCR5 peptide, relative EC50 against the standard; DS in PBS, 1 month at 5°C
[2] = target: 28mer peptide of the CXCR5 antigen; test: Antigen ELISA, relative EC50 against the reference; 100 mg/mL formulation, 18 months at +5°C
[3] = target: 28mer peptide of the CXCR5 antigen; test: Antigen ELISA, relative EC50 against the reference; 100 mg/mL formulation, 3 months at +25°C/60% RH
[4] = target: 28mer peptide of the CXCR5 antigen; test: Antigen ELISA, relative EC50 against the reference; 100 mg/mL formulation, 15 months at +5°C
[5] = target: 28mer peptide of the CXCR5 antigen; test: Antigen-ELISA on the 28mer CXCR5 peptide, relative EC50 against the current antibody standard; DS in PBS, release
[6] = target: 28mer peptide of the CXCR5 antigen; test: Antigen ELISA, relative EC50 against the reference; 100 mg/mL formulation, 1 month at -20°C
[7] = target: 28mer peptide of the CXCR5 antigen; test: Antigen ELISA, relative EC50 against the reference; 100 mg/mL formulation, 3 months at +5°C
[8] = target: 28mer peptide of the CXCR5 antigen; test: Antigen ELISA, relative EC50 against the reference; 100 mg/mL formulation, +5°C study, initial
[9] = target: 28mer peptide of the CXCR5 antigen; test: Antigen ELISA, relative EC50 against the reference; 100 mg/mL formulation, 18 months at -20°C
[10] = target: 28mer peptide of the CXCR5 antigen; test: Antigen ELISA, relative EC50 against the reference; 100 mg/mL formulation, -20°C study, initial
[11] = target: 28mer peptide of the CXCR5 antigen; test: Antigen ELISA, relative EC50 against the reference; 100 mg/mL formulation, 12 months at -20°C
[12] = target: 28mer peptide of the CXCR5 antigen; test: Antigen-ELISA on the 28mer CXCR5 peptide, relative EC50 against the standard; DS in PBS, 3 months at 25°C
[13] = target: 28mer peptide of the CXCR5 antigen; test: Antigen ELISA, relative EC50 against the reference; 100 mg/mL formulation, 12 months at +5°C
[14] = target: 28mer peptide of the CXCR5 antigen; test: Antigen-ELISA on the 28mer CXCR5 peptide, relative EC50 against the standard; DS in PBS, 1 month at 25°C
[15] = target: 28mer peptide of the CXCR5 antigen; test: Antigen ELISA, relative EC50 against the reference; 100 mg/mL formulation, 9 months at +5°C
[16] = target: 28mer peptide of the CXCR5 antigen; test: Antigen ELISA, relative EC50 against the reference; 100 mg/mL formulation, 6 months at +25°C/60% RH
[17] = target: 28mer peptide of the CXCR5 antigen; test: Antigen ELISA, relative EC50 against the reference; 100 mg/mL formulation, 9 months at -20°C
[18] = target: 28mer peptide of the CXCR5 antigen; test: Antigen-ELISA on the 28mer CXCR5 peptide, relative EC50 against the standard; DS in PBS, 3 months at -20°C
[19] = target: 28mer peptide of the CXCR5 antigen; test: Antigen-ELISA on the 28mer CXCR5 peptide, relative EC50 against the standard; DS in PBS, 3 months at 5°C
[20] = target: 28mer peptide of the CXCR5 antigen; test: Antigen ELISA, relative EC50 against the reference; 100 mg/mL formulation, 1 month at +25°C/60% RH
[21] = target: 28mer peptide of the CXCR5 antigen; test: Antigen ELISA, relative EC50 against the reference; 100 mg/mL formulation, 1 month at +5°C
[22] = target: 28mer peptide of the CXCR5 antigen; test: Antigen-ELISA on the 28mer CXCR5 peptide, relative EC50 against the standard; DS in PBS, 1 month at -20°C
[23] = target: 28mer peptide of the CXCR5 antigen; test: Antigen ELISA, relative EC50 against the reference; 100 mg/mL formulation, 6 months at +5°C
[24] = target: 28mer peptide of the CXCR5 antigen; test: Antigen ELISA, relative EC50 against the reference; 100 mg/mL formulation, 6 months at -20°C
[25] = target: 28mer peptide of the CXCR5 antigen; test: Antigen ELISA, relative EC50 against the reference; 100 mg/mL formulation, 3 months at -20°C
[26] = target: 28mer peptide of the CXCR5 antigen; test: Antigen ELISA, relative EC50 against the reference; 100 mg/mL formulation, +25°C/60% RH study, initial

B1: Lead CXCR5 Antibody (humanized IgG4 anti-CXCR5 antibody comprising a heavy chain of SEQ ID NO: 25 and a light chain of SEQ ID NO: 26) (antibody, V domains shown)
VH: QVQLKESGPGLVAPSESLSITCTVSGFSLIDYGVNWIRQPPGKGLEWLGVIWGDGTTYYNPSLKSRLSISKDNSKSQVFLKVTSLTTDDTAMYYCARIVYWGQGTLVTVSA
VL: DIVMTQAAPSVAVTPGASVSISCRSSKSLLHSSGKTYLYWFLQRPGQSPQLLIYRLSSLASGVPDRFSGSGSGTAFTLRISRVEAEDVGVYYCMQHLEYPYTFGGGTKLEIKR
Ag-ELISA EC50 % (relative to standard) [1]: 83% | Potency (Antigen ELISA), EC50 value in comparison to reference [2]: 119% | Potency (Antigen ELISA), EC50 value in comparison to reference [3]: 96% | Potency (Antigen ELISA), EC50 value in comparison to reference [4]: 114% | Ag-ELISA EC50 % (relative to standard) [5]: 100% | Potency (Antigen ELISA), EC50 value in comparison to reference [6]: 107% | Potency (Antigen ELISA), EC50 value in comparison to reference [7]: 95% | Potency (Antigen ELISA), EC50 value in comparison to reference [8]: 75% | Potency (Antigen ELISA), EC50 value in comparison to reference [9]: 127% | Potency (Antigen ELISA), EC50 value in comparison to reference [10]: 75% | Potency (Antigen ELISA), EC50 value in comparison to reference [11]: 96% | Ag-ELISA EC50 % (relative to standard) [12]: 108% | Potency (Antigen ELISA), EC50 value in comparison to reference [13]: 93% | Ag-ELISA EC50 % (relative to standard) [14]: 106% | Potency (Antigen ELISA), EC50 value in comparison to reference [15]: 92% | Potency (Antigen ELISA), EC50 value in comparison to reference [16]: 104% | Potency (Antigen ELISA), EC50 value in comparison to reference [17]: 101% | Ag-ELISA EC50 % (relative to standard) [18]: 93% | Ag-ELISA EC50 % (relative to standard) [19]: 112% | Potency (Antigen ELISA), EC50 value in comparison to reference [20]: 121% | Potency (Antigen ELISA), EC50 value in comparison to reference [21]: 105% | Ag-ELISA EC50 % (relative to standard) [22]: 132% | Potency (Antigen ELISA), EC50 value in comparison to reference [23]: 97% | Potency (Antigen ELISA), EC50 value in comparison to reference [24]: 96% | Potency (Antigen ELISA), EC50 value in comparison to reference [25]: 84% | Potency (Antigen ELISA), EC50 value in comparison to reference [26]: 75%
